Columns and labels:
[1] = biological target: complement C5 (human (endogenous in serum)) (UniProt P01031); assay: SPR
[2] = biological target: complement C5 (human (endogenous in serum), UniProt P01031 19-673; P01031 678-1676); assay: SEC-MALS; 100 uL at 1 mg/mL on S200 10/300 in PBS; C5-OmCI with RaCI and EcuFab, with or without CirpT1 (2-fold molar excess, excess removed by SEC); conditions: both partners purified
complement C5, sequence (P01031 19-673, chain 1 of 2): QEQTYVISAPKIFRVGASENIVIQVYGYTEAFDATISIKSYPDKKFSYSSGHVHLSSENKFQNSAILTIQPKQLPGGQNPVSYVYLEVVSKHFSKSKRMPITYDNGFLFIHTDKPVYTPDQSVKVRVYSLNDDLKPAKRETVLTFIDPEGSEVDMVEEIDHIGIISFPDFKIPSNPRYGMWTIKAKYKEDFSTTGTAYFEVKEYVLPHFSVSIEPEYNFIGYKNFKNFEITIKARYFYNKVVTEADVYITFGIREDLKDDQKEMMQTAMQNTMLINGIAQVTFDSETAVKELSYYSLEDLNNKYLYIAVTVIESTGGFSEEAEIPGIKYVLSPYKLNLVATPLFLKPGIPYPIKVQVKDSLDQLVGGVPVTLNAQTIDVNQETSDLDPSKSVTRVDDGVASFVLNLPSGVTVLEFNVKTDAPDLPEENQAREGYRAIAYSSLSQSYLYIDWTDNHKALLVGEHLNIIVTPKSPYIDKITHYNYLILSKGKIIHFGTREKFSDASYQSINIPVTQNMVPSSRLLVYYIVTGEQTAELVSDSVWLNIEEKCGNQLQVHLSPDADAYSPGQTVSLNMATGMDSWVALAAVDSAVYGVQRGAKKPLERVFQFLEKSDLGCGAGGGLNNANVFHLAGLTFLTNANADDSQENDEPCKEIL
complement C5, sequence (P01031 678-1676, chain 2 of 2): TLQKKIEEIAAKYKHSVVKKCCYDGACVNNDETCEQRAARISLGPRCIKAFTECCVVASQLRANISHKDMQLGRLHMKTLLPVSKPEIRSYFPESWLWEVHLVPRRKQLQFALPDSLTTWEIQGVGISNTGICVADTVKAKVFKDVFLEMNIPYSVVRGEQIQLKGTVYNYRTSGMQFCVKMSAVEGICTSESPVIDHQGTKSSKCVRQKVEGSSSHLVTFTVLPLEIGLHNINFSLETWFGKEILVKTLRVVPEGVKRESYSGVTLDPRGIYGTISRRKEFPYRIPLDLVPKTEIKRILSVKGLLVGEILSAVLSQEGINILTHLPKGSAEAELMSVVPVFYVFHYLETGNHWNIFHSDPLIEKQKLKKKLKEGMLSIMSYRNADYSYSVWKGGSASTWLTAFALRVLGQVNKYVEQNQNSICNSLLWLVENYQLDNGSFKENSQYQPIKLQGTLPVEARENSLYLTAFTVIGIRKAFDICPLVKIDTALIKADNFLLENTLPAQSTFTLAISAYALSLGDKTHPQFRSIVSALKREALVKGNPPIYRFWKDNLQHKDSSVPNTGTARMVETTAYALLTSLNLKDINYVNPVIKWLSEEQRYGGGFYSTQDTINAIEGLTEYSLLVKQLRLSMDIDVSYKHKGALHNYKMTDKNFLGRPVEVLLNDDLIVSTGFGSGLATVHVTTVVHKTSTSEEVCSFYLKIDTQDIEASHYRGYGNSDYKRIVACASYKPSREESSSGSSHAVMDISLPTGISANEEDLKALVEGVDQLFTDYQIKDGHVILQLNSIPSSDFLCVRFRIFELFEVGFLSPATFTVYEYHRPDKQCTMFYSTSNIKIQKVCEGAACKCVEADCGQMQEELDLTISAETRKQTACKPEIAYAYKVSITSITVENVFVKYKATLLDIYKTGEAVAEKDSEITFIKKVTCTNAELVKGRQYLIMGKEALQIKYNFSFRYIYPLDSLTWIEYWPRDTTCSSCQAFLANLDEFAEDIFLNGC

complement C5 (human (endogenous in serum)), sequence (P01031 19-673, chain 1 of 2): as the sequence (P01031 19-673, chain 1 of 2) above
complement C5 (human (endogenous in serum)), sequence (P01031 678-1676, chain 2 of 2): as the sequence (P01031 678-1676, chain 2 of 2) above

CirpT1 (complement inhibitor from Rhipicephalus pulchellus of the terminal pathway, family member 1) (natural protein)
Kd [1]: 10 nM

B1: OmCI (natural protein)
chain: DSESDCTGSEPVDAFQAFSEGKEAYVLVRSTDPKARDCLKGEPAGEKQDNTLPVMMTFKNGTDWASTDWTFTLDGAKVTATLGNLTQNREVVYDSQSHHCHVDKVEKEVPDYEMWMLDAGGLEVEVECCRQKLEELASGRNQMYPHLKDC
notes: also called Coversin
binding result [2]: binds
